Measurements reported in patent publication US20190240316A1 (published 2019).
Residue numbers refer to the chain shown, from its start.

B1: 14N4 (Fab, V domains shown)
VH: QVQLVESGGGLIQPGGSLRLSCAVSGFTVSSKYMTWVRQAPGKGLEWVSVIYGGGSTYYADSVVGRFTISRDNSKNTLYLQMNSLRAEDTAVYYCASRLGVRATTGDLDYWGQGTLVTVSS
VL: QIVMTQSPSTLSASVGDRVTITCRASQSISSWLAWYQQKPGKAPKLLIYDASSLESGVPSRFSGSGSGTEFTLTISSLQPDDFATYYCQQYNTYSWWTFGQGTKVEIK
B2: 3J20 (Fab, V domains shown)
VH: EVQLVESGGGLVQPGGSLRLSCAASGFTFSSFTMNWVRQAPGKGLQWVSTISGSGGLTYYADSVKGRFTISRDNSKNTLSLQMNSLRAEDTAVYYCARDLEFTVTSYGGYYFEYWGQGTLVTVSS
VL: not shown
B3: 13A8 (Fab, V domains shown)
VH: QVQLVESGGGVVQPGKSLRLSCAASGYIFSSYDMHWVRQAPGKGLEWVAVISFDGTTQHYADSVRGRFTVSRDNSQNTVFLQMNSLRPEDTAVYYCVKEYVIVSTFFDYWGQGTLVTVSS
VL: DIVMTQSPSSLSASVGDRVTITCRASQGIRNALGWYQHKPGKAPKVLIYAASRLQSGVPSRFSGSGSGTDFTLTISSLQPEDFATYYCLQDFNYPWTFGHGTKVEIK
B4: 14N4 (antibody, V domains shown)
VH: B1 VH
VL: B1 VL
B5: 3J20 (antibody, V domains shown)
VH: B2 VH
VL: not shown
B6: 13A8 (antibody, V domains shown)
VH: B3 VH
VL: B3 VL
B7: Motavizumab (antibody, V domains shown)
VH: QVTLRESGPALVKPTQTLTLTCTFSGFSLSTAGMSVGWIRQPPGKALEWLADIWWDDKKHYNPSLKDRLTISKDTSKNQVVLKVTNMDPADTATYYCARDMIFNFYFDVWGQGTTVTVSS
VL: DIQMTQSPSTLSASVGDRVTITCSASSRVGYMHWYQQKPGKAPKLLIYDTSKLASGVPSRFSGSGSGTEFTLTISSLQPDDFATYYCFQGSGYPFTFGGGTKVEIK
B8: Palivizumab (antibody, V domains shown)
VH: B7 VH with A32S, H60D, D67S, D100S, F103T, F105W, Q112A
VL: B7 VL with S24K, A25C, S26Q, S27L, R28S, V103L

Each binder was assayed against FFL_001 (assay: SPR).
Work on B1 yielded a Kd of 1.37 nM. Binder B2 has a Kd of 1.05 nM. In the case of B3, the Kd is reported as 0.2 nM.

Each binder was assayed against FFL_001 (assay: ELISA; printed as ng/uL).
With B4 the EC50 was 19.3 µg/mL. With B5 the EC50 was 11.1 µg/mL. B6 was tested, and the EC50 was 17.9 µg/mL. B7 gave an EC50 of 10.4 µg/mL. Work on B8 yielded an EC50 of 49 µg/mL.

The binders below were run against RPM (assay: ELISA; printed as ng/uL).
Binder B4 has an EC50 of 7.4 µg/mL. B5 showed an EC50 of 12.7 µg/mL. With B6 the EC50 was 14.8 µg/mL. B7 was tested, and the EC50 was 16.7 µg/mL. In the case of B8, the EC50 is reported as 26.1 µg/mL.
